According to US5455227A, “Biologically active lipoprotein and its use” (KabiGen AB, priority 1988, dated 1995):

Assay: In-vitro surface properties of lipoprotein-based artificial surfactant, pulsating bubble instrument (Example 4)
Type: physicochemical
Settings: phospholipid 10 mg/ml, 37° C., compared with native lipoprotein
Protocol: To this mixture surfactant lipoprotein dissolved in chloroform/methanol 1:2 (v/v) was added, giving a lipoprotein to phospholipid ratio of 1:50. The solvents were evaporated to dryness and the different surfactant preparations (phospholipids, phospholipids+lipoprotein fraction) were suspended in saline giving a phospholipid concentration of 10 or 80 mg/ml.
The surface properties of the lipoprotein-based artificial surfactant were analyzed with a pulsating bubble instrument (Surfactometer International, Toronto, Canada) (30). The surfactant preparations were suspended at a phospholipid concentration of 10 mg/ml, and the pressure gradient across the bubble wall was recorded at 37° C. during 50% cyclic surface compression at the rate of 40/min. Surface tension was assessed at maximal and minimal bubble sizes during the 5th cycle and after 1 and 5 min of pulsation.
The tracings therein represent pressure gradients across the bubble wall; max and min indicate maximal (radius 0.55 mm) and minimal (radius 0.40 mm) bubble size during pulsation at a rate of 40/min. A pressure gradient close to zero at minimal bubble size corresponds to nearly zero surface tension.

Substance: lipopeptide: hexapeptide H2 N-Ile-Pro-Cys-Cys-Pro-Val-COOH conjugated with palmitoyl-chloride (thioester lipopeptide) (H-IPCCPV-OH; also: palmitoyl thioester, Cys not given here)
- performance in the procedure of Example 4 (surface properties): performs similarly as the native lipoprotein
